The results in this text go back to paper doi:10.1101/2023.07.04.547698 (bioRxiv, 2023).

For experiment [1], the target named is T1, human tau fibrils (HT40, 2N4R) (Homo sapiens, UniProt P10636-8). The experiment can be described thus: flow cytometry on fibril-coated beads. (In general: In flow cytometry, cells or beads pass a laser one at a time.)
The target in experiment [2] is human 0N3R tau fibrils (Homo sapiens, UniProt P10636-2). The experiment can be described thus: far-Western, overlay or dot blot.
Experiment [3] deals with T1, human tau fibrils (HT40, 2N4R). The experiment can be described thus: flow cytometry on fibril-coated beads, competition with monomer.
The target of experiment [4] is human α-synuclein fibrils (Homo sapiens (Human)., UniProt P37840). The experiment is described as above.

Substitutions are numbered along the chain they refer to.

B1: ATA1 (scFv, V domains shown)
VH: QVQLQQSGPGLLKPSETLSLTCVISGDSVSSNSATWNWIRQSPSRGLEWLGRTYFRSKWYNDYAVSVKSRITINPDTSKNQFSLQLNSATPEDTAVYYCARQMDEGVGFDFWGQGTLVTVSS
VL: EIVLTQSPATLSLSPGERATLSCRASQSVSSYLAWYQQKPGQAPRLLIYDASNRATGIPARFSGSGSGTDFTLTISSLEPEDFAVYYCQQRSNWPPTFGQGTRLEIK
As for B1, the response in experiment [1] was half-maximal at 6.3 nM (EC50).

B2: ATA1.459.3 (scFv, V domains shown)
VH: B1 VH with A34V, S57R, K58R, E105K
VL: B1 VL with S92H
Regarding B2, in experiment [2], the binding result is recorded as “binds”.

B3: ATA1.458.5 (scFv, V domains shown)
VH: B1 VH with S33F, A34V, S57R
VL: B1 VL with S92H, N93S
B3: the binding result in experiment [3] is listed as “binds”.

B4: ATA1.458.3 (scFv, V domains shown)
VH: B1 VH with S31T, S33D, A34V, S57R, V65R
VL: B1 VL with S92H
For the molecule B4, the binding result in experiment [3] is on record as “binds”.

B5: H2.3 (antibody, V domains shown)
VH: QVQLQQSGPGLVKPSQTLSLTCAISGDSVSSHSASWNWIRQSPSRGLEWLGRTYYRGKWKTDYAVSVKSRIIINPDTSKNQFSLQLDSVTPEDTAVYFCTRATRGASDYWGQGTLVTVSS
VL: not shown
For the molecule B5, in experiment [4], the binding result is given as “binds”.

B6: H2.4 (antibody, V domains shown)
VH: B5 VH with G57S, K60H, T61N, V65A, S69G
VL: not shown
For B6, the binding result in experiment [4] is on record as “binds”.

By EC50 is commonly meant the concentration needed to bring the measured effect to its halfway point. A lower EC50 goes with a more potent agent.
